Biological target: the molecule itself
Assay: two-step photobleaching of single molecules

B1: GFP-tagged MCAK containing aa 187-730 (GMΔNT) (domain or fragment, UniProt Q91636 187-730, looked up)
chain: GRNNQGRRKSNIVKEMEKMKNKREEQRAQNYERRMKRAQDYDTSVPNWEFGKMIKEFRATMDCHRISMADPAEEHRICVCVRKRPLNKQELSKKEIDIISVPSKNIVLVHEPKLKVDLTKYLENQAFRFDFSFDETATNEVVYRFTARPLVQSIFEGGKATCFAYGQTGSGKTHTMGGDFSGKSQNVSKGVYAFASRDVFLLLDQPRYKHLDLDVFVTFFEIYNGKVFDLLNKKTKLRVLEDAKQEVQVVGLLEKQVISADDVFKMIEIGSACRTSGQTFANTSSSRSHACLQIILRRGSKLHGKFSLVDLAGNERGVDTASADRITRMEGAEINRSLLALKECIRALGQNKSHTPFRESKLTQILRDSFIGENSRTCMIAMLSPGFNSCEYTLNTLRYADRVKELSPQNAETNDDNLQMEDSGGSHASIEGLQLQDDFLLKDEELSTHNSFQDALNRVGELEDKAVDELRELVQKEPEWTNLLQMTEQPDYDLENFVMQAEYLIQERSKVLIALGDSINSLRLALQVEEQASKQISKKKRSNK
stoichiometry N: 2
